Earlier results as cited in paper PMC9569990 (International Journal of Molecular Sciences, 2022).

Key:
S100P (Homo sapiens) = S100P (Homo sapiens) (UniProt P25815); conditions: cited from earlier work
[1] = target: RAGE V domain (Homo sapiens) (UniProt Q15109); conditions: cited from earlier work
Chain of RAGE V domain (Homo sapiens) (Q15109 23-116): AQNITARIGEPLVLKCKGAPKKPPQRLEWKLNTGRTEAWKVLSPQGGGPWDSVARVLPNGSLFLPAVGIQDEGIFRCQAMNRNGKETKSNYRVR

Chain of S100P (P25815 whole entry): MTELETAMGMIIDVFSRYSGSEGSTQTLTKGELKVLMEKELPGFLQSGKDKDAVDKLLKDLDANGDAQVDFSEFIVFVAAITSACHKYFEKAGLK
Chain of S100P (Homo sapiens) (P25815 whole entry): as above

In the case of S100P (from UniProt P25815), the Kd (S100P (Homo sapiens)) is listed as 64 nM and the Kd [1] is listed as 6 µM.
